Measurements published in the supplement of paper PMC12042874.
± gives the uncertainty stated by the source.

Experiment: amyloid nucleation score (Sup35N fusion, yeast selection) (log enrichment); library NNK2; higher = more nucleation; inactive = no reads after selection
Summary of the method: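 Sup35N was fused to peptides of 20 random codons and expressed in psi-negative yeast, which were induced with 100 μM copper sulfate for 24 hours and then grown on medium lacking adenine and uracil for 7 days at 30°C. Plasmid inserts from input and output were sequenced on Illumina. The nucleation score is the DiMSum log enrichment of output over input reads, centred on the mode score of non-aggregating sequences. Sequences with under 100 input reads were left out, and random libraries had three technical output replicates.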

Substance | amyloid nucleation score
CLGNHIDSCVVFLTDAESSS | -0.484 ± 0.65
CLNRNGKEVTWVGLIC | 2.46 ± 0.069
CLQVAKDADFCIKAVEERGW | 2.42 ± 0.19
CLVFTRVWYCAIYRTSFKET | -0.474 ± 0.38
CLWVRGSCC | -1.04 ± 0.55
CLWVSMDGHSFWRKFNAVI | inactive
CLYLACIEGWLP | 3.24 ± 0.056
CLYPLSVDVVSFHYCTTCCE | 0.141 ± 0.33
CLYRTLWSCLWSGMMIFCTD | -1.77 ± 1
CMGFSSLFFQGWVVIDCLW | -1.1 ± 0.76
CMLDA | -0.555 ± 0.76
CMQLSYSYSLTFEGQCHLVG | 4.27 ± 0.088
CNGLAQKIILSTRRLLLVPG | 0.537 ± 0.34
CNIVNFMWAGENFR | 5.48 ± 0.086
CNKTLLFIFPVLGQQDGDFG | 4.417 ± 0.044
CNLWSDLGWYYQAMWKIRRD | inactive
CNMFCFDCCLWFGGMRISST | 8.315 ± 0.042
CNRESEWIECVRGFLEYANG | 1.44 ± 0.11
CNRMGFHMFDCF | inactive
CNRQAAMKAPSETCDVVACF | 4.52 ± 0.083
CNSCSP | 0.811 ± 0.67
CNSRCEDWPWIERTPG | 0.571 ± 0.47

Substance | amyloid nucleation score
CNVLSRRNGKLRACFS | 0.732 ± 0.4
CNVTIIYVPYGEWTTFYLRL | 7.45 ± 0.082
CNVWDVSGDTFVTYGKDDRG | 0.275 ± 0.25
CNWGRTFCRRVSVPVRRSDL | -0.074 ± 1.1
CPIDYGTSVNHDNKVSILYL | 0.534 ± 0.51
CPSLRGVVVRSLSTGSSDAR | 0.163 ± 0.56
CQISGCYWV | 5.28 ± 0.074
CRGTIWIAYSRYYYYRMNDF | inactive
CRLADFAPFRHCFFSHDCSR | 3.57 ± 0.046
CRMMI | 0.591 ± 0.36
CRRHVMFYTCMLE | 4.27 ± 0.064
CRRTFDSLIS | -0.74 ± 0.78
CRYPFTPACTYMNLG | -0.114 ± 1
CSCQAVLLLASSRPAIKVRC | 1.86 ± 0.31
CSFSYGMYSK | 0.401 ± 0.23
CSMVNDLSFNIEARMQSWNS | 0.028 ± 0.79
CSQIRFGRADRLNETSIKLV | 0.333 ± 0.54
CSRKDYSYRVMKFVFCIYGL | 6.45 ± 0.061
CSSDSIYSSWWFSLYNITGE | inactive
CSSEDITYAWQWARWLRS | 0.494 ± 0.41
CSSFKSLIRLGTLNRRNRNE | 3.68 ± 0.059
CSSNCFYEAFVLGYKTHARE | 0.295 ± 1

Substance | amyloid nucleation score
CSSTAVFTRLIKADIWVRSA | -1.35 ± 0.36
CSVVGWE | 0.671 ± 0.66
CSVWRDLVAICLRD | inactive
CSYCFCCVH | 8.29 ± 0.065
CTCQVFPHNALCQGSWVLPV | 1.07 ± 0.27
CTDQRGLSIIVLGYNSHSMR | 5.682 ± 0.054
CTRRDFFGQTTAHVSVWCTG | 4.33 ± 0.081
CTRRRM | 1.63 ± 0.15
CTSVKQNDLKGSLIN | inactive
CTVCITKGWLMHVWYYAYRW | 0.902 ± 0.22
CVACLDM | inactive
CVGDAALWWVVFIYGEHSRV | 0.022 ± 0.41
CVGGWWPRQRLFCIWFIIAV | 1.72 ± 0.31
CVKRRWPEVIRVHVGGYSFN | 0.455 ± 0.5
CVLSKEI | 0.387 ± 0.3
CVLTRVFETTSCVSIHLF | -1.64 ± 0.79
CVSDCD | 3.45 ± 0.14
CVSEARRIE | -0.36 ± 0.35
CVSSRDRG | 0.439 ± 0.27
CVSVPFYQVCFVGPKMEPLG | 0.636 ± 0.18
CVSWRYFMFPCLVSLEMSSS | 3.71 ± 0.085
CVTDATVKNYI | -1.42 ± 0.78

Substance | amyloid nucleation score
CVVRFRGPYKFCWPQDRSYS | 0.247 ± 0.8
CVYPGEMLWRI | -0.609 ± 0.76
CWPCRMMKLVREESAVYTGG | 0.062 ± 0.34
CWRFVSCNTNYNWTMQGFYY | -1.38 ± 1.1
CWSPLGTFSLLALMGASKTL | 0.103 ± 0.42
CWVRISDLCLYKFVGVPMSV | 0.312 ± 0.8
CYFSDPVHLENPSINSISFW | inactive
CYMTFYVMLTLDRTQSHSGH | 7.411 ± 0.051
CYMYDSVTNWTYWLSG | -0.679 ± 0.26
CYSILFSLKQIDRLLITLPR | -1.04 ± 0.5
CYSMSRVVSNGEKHYD | 0.675 ± 0.4
CYSYWPRSPFIWY | -0.978 ± 1.1
DACYGITLDCCETLARSMSC | -0.382 ± 0.76
DADIRQ | 0.764 ± 0.47
DANTRGHSCRNCM | 0.195 ± 0.76
DAWYMDFLSCACWIHWR | 0.871 ± 0.45
DCRDLFLKKVWGYVGRLCEV | inactive
DCRFQIHVCDAYDK | inactive
DCSSVISKSSLIAVLCFHTN | 5.14 ± 0.058
DDASKKLYS | 0.967 ± 0.15
